The values that follow come from patent publication US20240226163A1 (Regeneron, published 2024).

By EC50 is commonly meant the concentration that produces a half-maximal response. A high value points to a less potent agent.

Experiment [1] addresses T1, HLA-A*02:01 presenting MAGE-A4 286-294 peptide (…) (human).
T1 construct: On peptide-pulsed T2 cells
The experiment can be described thus: flow cytometry, peptide-pulsed T2 cells. On the technique in general: In flow cytometry, cells or beads pass a laser one at a time.
Experimental: (§1) Samples were run on an Intellicyt iQue flow cytometer (Intellicyt) and results were analyzed using Forecyte analysis software (Intellicyte) to calculate the mean fluorescent intensity (MFI) after gating for live cells. MFI values were plotted in Graphpad Prism using a four-parameter logistic equation over a 12-point response curve to calculate EC₅₀ values. The secondary antibody alone (i.e. no primary antibody) for each dose-response curve is also included in the analysis as a continuation of the three-fold serial dilution and is represented as the lowest dose. The signal to noise (S/N) was determined by taking the ratio of the highest MFI on the dose response curve to the MFI in the secondary alone wells.

Experiment [2] concerns the target T2, HLA-A*02:01 presenting FN1 2182-2190 peptide (…) (human).
T2 construct: On peptide-pulsed T2 cells; also called T2 Pulsed FN1 2182-2190
The experiment can be described thus: flow cytometry, peptide-pulsed T2 cells.

Experiment [3] has as its target T3, HLA-A*02:01 presenting PSME2 145-153 peptide (…) (human).
T3 construct: On peptide-pulsed T2 cells; also called T2 Pulsed PSME2 145-153
The experiment is described as follows: flow cytometry, peptide-pulsed T2 cells.

The target of experiment [4] is T4, HLA-A*02:01 presenting PCDHGC3 337-345 peptide (…) (human).
T4 construct: On peptide-pulsed T2 cells; also called T2 Pulsed PCDHGC3 337-345
The experiment is described as follows: flow cytometry, peptide-pulsed T2 cells.

For experiment [5], the target named is T5, HLA-A*02:01 presenting SMIM11A 4-12 peptide (…) (human).
T5 construct: On peptide-pulsed T2 cells; also called T2 Pulsed SMIM11A 4-12
The experiment is described as follows: flow cytometry, peptide-pulsed T2 cells.

Experiment [6] addresses T6, HLA-A*02:01 presenting RABGAP1L 408-416 peptide (…) (human).
T6 construct: On peptide-pulsed T2 cells; also called T2 Pulsed RABGAP1L 408-416
The experiment is described as follows: flow cytometry, peptide-pulsed T2 cells.

In experiment [7] the target is T7, HLA-A*02:01 presenting CNOT1 1965-1973 peptide (…) (human).
T7 construct: On peptide-pulsed T2 cells; also called T2 Pulsed CNOT1 1965-1973
The experiment can be described thus: flow cytometry, peptide-pulsed T2 cells.

Experiment [8] deals with T8, HLA-A*02:01 presenting CARD8 170-178 peptide (…) (human).
T8 construct: On peptide-pulsed T2 cells; also called T2 Pulsed CARD8 170-178
The experiment is described as follows: flow cytometry, peptide-pulsed T2 cells.

Experiment [9] has as its target T9, HLA-A*02:01 presenting MRPL37 334-342 peptide (…) (human).
T9 construct: On peptide-pulsed T2 cells; also called T2 Pulsed MRPL37 334-342
The experiment is described as follows: flow cytometry, peptide-pulsed T2 cells.

In experiment [10] the target is T10, HLA-A*02:01 presenting PLEKHH2 790-798 peptide (…) (human).
T10 construct: On peptide-pulsed T2 cells; also called T2 Pulsed PLEKHH2 790-798
The experiment can be described thus: flow cytometry, peptide-pulsed T2 cells.

Experiment [11] concerns the target T11, HLA-A*02:01 presenting NBAS 2063-2071 peptide (…) (human).
T11 construct: On peptide-pulsed T2 cells; also called T2 Pulsed NBAS 2063-2071
The experiment is described as follows: flow cytometry, peptide-pulsed T2 cells.

For experiment [12], the target named is T12, HLA-A*02:01 presenting TEP1 2156-2164 peptide (…) (human).
T12 construct: On peptide-pulsed T2 cells; also called T2 Pulsed TEP1 2156-2164
The experiment is described as follows: flow cytometry, peptide-pulsed T2 cells.

The target in experiment [13] is T13, HLA-A*02:01 presenting HEATR5A 1925-1933 peptide (…) (human).
T13 construct: On peptide-pulsed T2 cells
The experiment is described as follows: flow cytometry, peptide-pulsed T2 cells.

Experiment [14] deals with T1, HLA-A*02:01 presenting MAGE-A4 286-294 …. The experiment can be described thus: flow cytometry, peptide-pulsed T2 cells. The source holds these as a separate data set.
Experimental: as §1
The target of experiment [15] is T2, HLA-A*02:01 presenting FN1 2182-2190 …. The experiment can be described thus: flow cytometry, peptide-pulsed T2 cells. The source holds these as a separate data set.
Experimental: as §1
Experiment [16] deals with T14, HLA-A*02:01 presenting AOX1 795-803 peptide (…) (human).
T14 construct: On peptide-pulsed T2 cells; also called T2 Pulsed AOX1 795-803
The experiment is described as follows: flow cytometry, peptide-pulsed T2 cells.
Experimental: as §1

The target in experiment [17] is T3, HLA-A*02:01 presenting PSME2 145-153 …. The experiment can be described thus: flow cytometry, peptide-pulsed T2 cells. This is another data set of the same source.
Experimental: as §1
In experiment [18] the target is T4, HLA-A*02:01 presenting PCDHGC3 337-345 …. The experiment can be described thus: flow cytometry, peptide-pulsed T2 cells. This is another data set of the same source.
Experimental: as §1
In experiment [19] the target is T15, HLA-A*02:01 presenting SHTN1 198-206 peptide (…) (human).
T15 construct: On peptide-pulsed T2 cells; also called T2 Pulsed SHTN1 198-206
The experiment is described as follows: flow cytometry, peptide-pulsed T2 cells.
Experimental: as §1

Experiment [20] concerns the target T5, HLA-A*02:01 presenting SMIM11A 4-12 …. The experiment is described as follows: flow cytometry, peptide-pulsed T2 cells. This is another data set of the same source.
Experimental: as §1
For experiment [21], the target named is T6, HLA-A*02:01 presenting RABGAP1L 408-416 …. The experiment can be described thus: flow cytometry, peptide-pulsed T2 cells. This is another data set of the same source.
Experimental: as §1
Experiment [22] addresses T7, HLA-A*02:01 presenting CNOT1 1965-1973 …. The experiment is described as follows: flow cytometry, peptide-pulsed T2 cells. This is another data set of the same source.
Experimental: as §1
In experiment [23] the target is T8, HLA-A*02:01 presenting CARD8 170-178 …. The experiment is described as follows: flow cytometry, peptide-pulsed T2 cells. This is another data set of the same source.
Experimental: as §1
For experiment [24], the target named is T9, HLA-A*02:01 presenting MRPL37 334-342 …. The experiment is described as follows: flow cytometry, peptide-pulsed T2 cells. The source holds these as a separate data set.
Experimental: as §1
The target in experiment [25] is T10, HLA-A*02:01 presenting PLEKHH2 790-798 …. The experiment can be described thus: flow cytometry, peptide-pulsed T2 cells. This is another data set of the same source.
Experimental: as §1
For experiment [26], the target named is T11, HLA-A*02:01 presenting NBAS 2063-2071 …. The experiment can be described thus: flow cytometry, peptide-pulsed T2 cells. The source holds these as a separate data set.
Experimental: as §1
Experiment [27] addresses T12, HLA-A*02:01 presenting TEP1 2156-2164 …. The experiment can be described thus: flow cytometry, peptide-pulsed T2 cells. This is another data set of the same source.
Experimental: as §1
The target of experiment [28] is T13, HLA-A*02:01 presenting HEATR5A …. The experiment can be described thus: flow cytometry, peptide-pulsed T2 cells. The source holds these as a separate data set.
Experimental: as §1
In experiment [29] the target is T16, HLA-A*02:01 presenting THBS3 116-125 peptide (…) (human).
T16 construct: On peptide-pulsed T2 cells
The experiment can be described thus: flow cytometry, peptide-pulsed T2 cells.

The target of experiment [30] is T17, HLA-A*02:01 presenting LPIN2 823-832 peptide (…) (human).
T17 construct: On peptide-pulsed T2 cells
The experiment is described as follows: flow cytometry, peptide-pulsed T2 cells.

Experiment [31] has as its target T18, HLA-A*02:01 presenting SCL25A19 111-120 peptide (…) (human).
T18 construct: On peptide-pulsed T2 cells
The experiment is described as follows: flow cytometry, peptide-pulsed T2 cells.

Experiment [32] addresses T19, HLA-A*02:01 presenting CELSR3 1594-1603 peptide (…) (human).
T19 construct: On peptide-pulsed T2 cells
The experiment is described as follows: flow cytometry, peptide-pulsed T2 cells.

The target in experiment [33] is T20, HLA-A*02:01 presenting PAPPA2 307-316 peptide (…) (human).
T20 construct: On peptide-pulsed T2 cells
The experiment is described as follows: flow cytometry, peptide-pulsed T2 cells.

Experiment [34] deals with T21, HLA-A*02:01 presenting FAT4 4053-4062 peptide (…) (human).
T21 construct: On peptide-pulsed T2 cells
The experiment can be described thus: flow cytometry, peptide-pulsed T2 cells.

The target of experiment [35] is T22, HLA-A*02:01 presenting MAGE-A10 254-263 peptide (…) (human).
T22 construct: On peptide-pulsed T2 cells
The experiment is described as follows: flow cytometry, peptide-pulsed T2 cells.

Experiment [36] has as its target T23, HLA-A*02:01 presenting CCDC36 417-426 peptide (…) (human).
T23 construct: On peptide-pulsed T2 cells
The experiment is described as follows: flow cytometry, peptide-pulsed T2 cells.

Experiment [37] addresses T24, HLA-A*02:01 presenting MAGE-A4 230-239 peptide (…) (human).
T24 construct: On peptide-pulsed T2 cells
The experiment is described as follows: flow cytometry, peptide-pulsed T2 cells.
Experimental: (§2) Samples were run on an IntelliCyt iQue flow cytometer (Intellicyt) and results were analyzed using Forecyte analysis software (Intellicyt) to calculate the mean fluorescent intensity (MFI) after gating for live cells. MFI values were plotted in Graphpad Prism using a four-parameter logistic equation over a 12-point response curve to calculate EC50 values. The secondary antibody alone (i.e., no primary antibody) for each dose-response curve was also included in the analysis as a continuation of the three-fold serial dilution and was represented as the lowest dose. The signal to noise (S/N) was determined by taking the ratio of the highest MFI on the dose response curve to the MFI in the secondary-alone wells.

Experiment [38] has as its target T24, HLA-A*02:01 presenting MAGE-A4 230-239 …. The experiment can be described thus: flow cytometry, peptide-pulsed T2 cells, 100 nM antibody.
Experimental: as §2
For experiment [39], the target named is T25, HLA-A*02:01 presenting MAGE-A8 232-241 peptide (…) (human).
T25 construct: On peptide-pulsed T2 cells
The description is as above.
Experimental: as §2

Experiment [40] has as its target T16, HLA-A*02:01 presenting THBS3 116-125 …. The experiment is described as above.
Experimental: as §2
For experiment [41], the target named is T17, HLA-A*02:01 presenting LPIN2 823-832 …. Described as above.
Experimental: as §2
Experiment [42] deals with T18, HLA-A*02:01 presenting SCL25A19 111-120 …. The description is as above.
Experimental: as §2
For experiment [43], the target named is T19, HLA-A*02:01 presenting CELSR3 1594-1603 …. Described as above.
Experimental: as §2
Experiment [44] has as its target T20, HLA-A*02:01 presenting PAPPA2 307-316 …. The experiment is described as above.
Experimental: as §2
For experiment [45], the target named is T21, HLA-A*02:01 presenting FAT4 4053-4062 …. The description is as above.
Experimental: as §2
Experiment [46] deals with T22, HLA-A*02:01 presenting MAGE-A10 254-263 …. The description is as above.
Experimental: as §2
Experiment [47] deals with T23, HLA-A*02:01 presenting CCDC36 417-426 …. The description is as above.
Experimental: as §2
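Throughout, for S/N ratio: ratio of peak mean fluorescence intensity across a 12-point threefold antibody dilution series to the MFI with secondary antibody only, live-gated cells by flow cytometry.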

B1: mAbM31339N (antibody, V domains shown)
VH: QVQLVESGGGLVKPGGSLRLSCAASGFTFSEYYLTWIRQAPGKGLDWIAYISSSGYNIYYADSVKDRFTISRDNGNNSLFLQMNNLRAEDTAVYFCAREGVTDGMDVWGQGTTVTVSS
VL: DIQMTQSPSSLSASVGDRVTITCRASQSIDTFLNWYQQKPGKVPKLLIYAASNLESGVPSRFSGSGSGTVFTLTISRLQPEDFATYYCQQSYSIPPITFGQGTRVEIK
notes: Human variable regions with a mouse constant region (detected with anti-mouse Fc secondary; its isotype control is mIgG2a); also called mAb31339N
Regarding B1, it took 1.7 nM to reach a half-maximal effect in [1] (EC50).

B2: mAbH31339N2 (antibody, human IgG4 S228P, kappa, V domains shown)
VH: QVQLVESGGGLVKPGGSLRLSCAASGFTFSEYYLTWIRQAPGKGLDWIAYISSSGYNIYYADSVKDRFTISRDNGKNSLFLQMNNLRAEDTAVYFCAREGVTDGMDVWGQGTTVTVSS
VL: DIQMTQSPSSLSASVGDRVTITCRASQSIDTFLNWYQQKPGKVPKLLIYAASNLESGVPSRFSGSGSGTVFTLTISRLQPEDFATYYCQQSYSIPPITFGQGTRVEIKR
notes: Fully human form (human constant region); also called parent antibody
Turning to B2, the binding result in experiment [2], in [3], in [4], in experiment [5], in experiment [6] and in [7] was “no binding” each time. Besides, the binding result in experiment [8], in [9], in experiment [10], in experiment [11], in [12] and in experiment [13] was “no binding” throughout. The S/N ratio was 310 in [14]; 1 in [15]; 131 in [16]; 1 in experiment [17]; 1 in [18]; 5 in experiment [19]. Also, the S/N ratio in experiment [20], in experiment [21], in experiment [22], in experiment [23], in [24] and in [25] was 1 in each case. Also, the S/N ratio in experiment [26], in experiment [27] and in experiment [28] was 1 in each case.

B3: mAbM34852N (antibody, V domains shown)
VH: EVQLLESGGGLVQPGGSLRLTCAASGFTFRSYAMSWVRQAPGKGLEWVSTISGNSDSTYYADSVKGRFTISRENSKNTLYLQMNSLRAEDTAVYYCAKDLHITMVRGAIPADVFDIWGQGTMVTVSS
VL: not shown
notes: Mouse constant region (detected with anti-mouse Fc secondary)
For the molecule B3, the binding result in [29], in experiment [30], in experiment [31], in experiment [32], in experiment [33] and in experiment [34] was “no binding (tested: 100 nM)” throughout. Moreover, the binding result in experiment [35] and in [36] was “no binding (tested: 100 nM)” throughout. Also, a half-maximal effect in experiment [37] (EC50) was put at 4.7 nM. The “Antibody Binding Ratio (pulsed cell MFI/Unpulsed cell MFI)” value in experiment [38] worked out at 513; in [39], 870; in experiment [40] it was 1; in experiment [41], 0.9; in [42], 0.8; in experiment [43] it was 0.8. Also, the “Antibody Binding Ratio (pulsed cell MFI/Unpulsed cell MFI)” value in [44] is 0.9; in [45] it was 1; in experiment [46] it was 0.9; in experiment [47], 1.
